The text below walks through data of publication PMC11648244, “Substrate specificity and kinetic mechanism of 3β-hydroxy- Δ ^5-C27-steroid oxidoreductase” (The Journal of Biological Chemistry, 2024).

Numbering of substitutions follows the chain as printed. Names and notes keep the numbering of the source.

Data set [1] deals with 3β-HSD dehydrogenase type II (HSD3B2) (UniProt P26439). As to the kind of experiment: cross-linking; chemical crosslinking in solution, bands on a gel.
The target in data set [2] is T1, 3β-hydroxy-Δ^5-C27-steroid oxidoreductase (HSD3B7) (Homo sapiens, UniProt Q9H2F3).
T1 construct: WT, N-terminal 6x histidine tag
T1 sequence (Q9H2F3 1-369): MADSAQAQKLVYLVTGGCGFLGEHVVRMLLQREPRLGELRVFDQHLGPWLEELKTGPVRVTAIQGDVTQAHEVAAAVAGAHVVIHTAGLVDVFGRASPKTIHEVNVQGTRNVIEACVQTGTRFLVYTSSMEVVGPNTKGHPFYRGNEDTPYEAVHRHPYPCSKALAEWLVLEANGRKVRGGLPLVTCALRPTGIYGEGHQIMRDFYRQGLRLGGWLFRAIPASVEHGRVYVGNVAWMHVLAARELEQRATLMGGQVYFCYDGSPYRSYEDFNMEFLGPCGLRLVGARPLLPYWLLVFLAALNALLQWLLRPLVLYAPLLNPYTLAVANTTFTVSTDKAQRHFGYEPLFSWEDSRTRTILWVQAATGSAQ
Put plainly: FRET from intrinsic tryptophan fluorescence to NADH, Morrison fit. The class given is binding.

In data set [3] the target is 3β-HSD dehydrogenase type I (HSD3B1) (UniProt P14060). Put plainly: cross-linking; chemical crosslinking in solution, bands on a gel.
Substrate in data set [4]: CC(C)CCC[C@@H](C)[C@H]1CC[C@H]2[C@@H]3[C@H](O)C=C4C[C@@H](O)CC[C@]4(C)[C@H]3CC[C@]12C
Put plainly: steady-state kinetics of purified enzyme (NAD(P)H-Glo), Km. It counts as biochemical, Homo sapiens. On the set-up: kcat / Vmax: unit not given here. The conditions noted are these: NAD+ predicted oxysterol pocket; F93, F205, I201; near Y-S-N-K tetrad (docking).

Substrate in data set [5]: C[C@@H](CO)CCC[C@@H](C)[C@H]1CC[C@H]2[C@@H]3[C@H](O)C=C4C[C@@H](O)CC[C@]4(C)[C@H]3CC[C@]12C
The description is as above. It counts as biochemical, Homo sapiens. Details: kcat / Vmax: unit not given here. As to conditions: NAD+ predicted oxysterol pocket; F93, F205, I201, Q208 (docking).

Substrate in data set [6]: C[C@H](CCCC(C)(C)O)[C@H]1CC[C@H]2[C@@H]3[C@H](O)C=C4C[C@@H](O)CC[C@]4(C)[C@H]3CC[C@]12C
Described as above. The class given is biochemical, Homo sapiens. Details: kcat / Vmax: unit not given here. The conditions noted are these: NAD+ predicted oxysterol pocket; F93, F205, I201 (docking).

Substrate in data set [7]: CC(CCCC(C)C1CCC2C3C(O)C=C4C[C@@H](O)CC[C@]4(C)C3CC[C@]12C)C(=O)O
The data set is described as above. It counts as biochemical, Homo sapiens. Details: kcat / Vmax: unit not given here. The conditions noted are these: NAD+ predicted oxysterol pocket; F93, F205, I201 (docking).

Substrate in the data set “purified protein”: NC(=O)c1ccc[n+]([C@@H]2O[C@H](COP(=O)([O-])OP(=O)(O)OC[C@H]3O[C@@H](n4cnc5c(N)ncnc54)[C@H](O)[C@@H]3O)[C@@H](O)[C@H]2O)c1
As to the kind of experiment: purified protein. As to conditions: varied: cofactor. The class given is biochemical, Homo sapiens.

Substrate in data set [8]: CC(C)CCC[C@@H](C)[C@H]1CC[C@H]2[C@@H]3[C@H](O)C=C4C[C@@H](O)CC[C@]4(C)[C@H]3CC[C@]12C
Put plainly: steady-state kinetics of purified mutant, apparent Km. As to conditions: NAD+ predicted oxysterol binding pocket. It counts as biochemical, Homo sapiens.

Substrate in data set [9]: CC(C)CCC[C@@H](C)[C@H]1CC[C@H]2[C@@H]3[C@H](O)C=C4C[C@@H](O)CC[C@]4(C)[C@H]3CC[C@]12C
As to the kind of experiment: steady-state kinetics of purified mutant, Km. It counts as biochemical, Homo sapiens. As to conditions: NAD+ predicted oxysterol binding pocket.

Setting [10] is: conserved Rossmann fold domain (docking), binds first.

Turning to “3β-HSD dehydrogenase type II (HSD3B2) (from UniProt P26439 1-372) (enzyme)”, the stoichiometry N (in general, the number of molecules, sites or subunits per partner or assembly) in data set [1] was 2.

Turning to `NC(=O)C1=CN([C@@H]2O[C@H](COP(=O)(O)OP(=O)(O)OC[C@H]3O[C@@H](n4cnc5c(N)ncnc54)[C@H](O)[C@@H]3O)[C@@H](O)[C@H]2O)C=CC1` [NADH], the Kd (as a rule, the constant that tells how readily two partners part at equilibrium) in [2] came out at 780 nM.

“3β-HSD dehydrogenase type I (HSD3B1) (from UniProt P14060 1-373) (enzyme)”: in data set [3], the stoichiometry N came to 2.

B1: 3β-hydroxy-Δ^5-C27-steroid oxidoreductase (HSD3B7) (Homo sapiens) (protein)
chain: T1 sequence (Q9H2F3 1-369)
notes: WT, N-terminal 6x histidine tag
As to B1, the Km (in general, the substrate concentration at which the rate is half of its maximum) in [4] is 17.4 µM; in data set [5], 3.8 µM; in data set [6] it was 18.3 µM; in [7] it was 8.6 µM; in “purified protein” (setting [10]), 45.8 µM. The Vmax is 735 (669.5, 812.3) in [4]; 532.0 (493.0, 573.4) in data set [5]; 901.8 (785.3, 1044) in [6]; 551.8 (513.5, 593.2) in data set [7]; 587.2 (550.0, 628.7) in the data set “purified protein” (setting [10]). Further, the kcat is 30.9 (28.1, 34.1) in data set [4]; 22.4 (20.7, 24.1) in [5]; 37.9 (33.0, 43.9) in data set [6]; 23.2 (21.6, 24.9) in data set [7]; 24.7 (23.1, 26.4) in “purified protein” (setting [10]). Moreover, the kcat/Km – broadly, the second-order rate constant that governs catalysis at low substrate concentration – was 30000 ± 10000 M⁻¹ s⁻¹ in data set [4]; 98000 ± 22000 M⁻¹ s⁻¹ in data set [5]; 35000 ± 12000 M⁻¹ s⁻¹ in data set [6]; 45000 ± 17000 M⁻¹ s⁻¹ in data set [7]; 9000 ± 3200 M⁻¹ s⁻¹ in the data set “purified protein” (setting [10]).

B2: 3β-hydroxy-Δ^5-C27-steroid oxidoreductase (HSD3B7) (Homo sapiens; F93A) (protein)
chain: T1 sequence (Q9H2F3 1-369) with F93A
notes: F93A mutant
For the molecule B2, in [8], the Km is 58.2 µM; the Vmax is 286.5 (224.2, 405.0); the kcat is reported as 14.3 (11.2, 20.3); the kcat/Km is 4100 ± 2000 M⁻¹ s⁻¹.

B3: 3β-hydroxy-Δ^5-C27-steroid oxidoreductase (HSD3B7) (Homo sapiens; F205A) (protein)
chain: T1 sequence (Q9H2F3 1-369) with F205A
notes: F205A mutant
Regarding B3, in data set [9], the Km was 11.2 µM; the Vmax is recorded as 76.6 (62.5, 96.0); the kcat is on record as 1.5 (1.3, 1.9); the kcat/Km is 2200 ± 700 M⁻¹ s⁻¹. In “purified protein”, the Michaelis-Menten constant (Km) worked out at 93.8 µM; the Vmax is listed as 288.2 (255.0, 330.6); the kcat was 5.8 (5.1, 6.6); the kcat/Km was 1000 ± 400 M⁻¹ s⁻¹.
